Common to all, as to conditions: both partners purified
Test [1] concerns the target T1, Streptococcus pyogenes Cas9 (a.a. 1-1368) (S. pyogenes, UniProt Q99ZW2 1-1368).
T1 construct: Cas9 RNA-guided endonuclease of Streptococcus pyogenes, residues 1-1368, synthetic gene in pET28b; the two states are told apart by the assay; also called SpyCas9; apo-SpyCas9; source: E. coli BL21(DE3), purified (HisTrap HP, HiTrap SP, Superdex200)
The test is described as follows: ITC; sgRNA-bound SpyCas9 titrated with AcrIIA4; 25 °C; one-site binding model.

For test [2], the target named is T1, Streptococcus pyogenes Cas9 (a.a. …). The test is described as follows: ITC; apo-SpyCas9 (no sgRNA): 50 uM SpyCas9 in the cell titrated with 500 uM AcrIIA4; 25 °C; 20 mM sodium phosphate, pH 7.4, 100 mM NaCl, 5 mM BME, 0.01% NaN3; one-site binding model.
Test [3] has the same target. Described as above. This is another data set of the same source.

T1 sequence (Q99ZW2 whole entry, the tested form may be a part): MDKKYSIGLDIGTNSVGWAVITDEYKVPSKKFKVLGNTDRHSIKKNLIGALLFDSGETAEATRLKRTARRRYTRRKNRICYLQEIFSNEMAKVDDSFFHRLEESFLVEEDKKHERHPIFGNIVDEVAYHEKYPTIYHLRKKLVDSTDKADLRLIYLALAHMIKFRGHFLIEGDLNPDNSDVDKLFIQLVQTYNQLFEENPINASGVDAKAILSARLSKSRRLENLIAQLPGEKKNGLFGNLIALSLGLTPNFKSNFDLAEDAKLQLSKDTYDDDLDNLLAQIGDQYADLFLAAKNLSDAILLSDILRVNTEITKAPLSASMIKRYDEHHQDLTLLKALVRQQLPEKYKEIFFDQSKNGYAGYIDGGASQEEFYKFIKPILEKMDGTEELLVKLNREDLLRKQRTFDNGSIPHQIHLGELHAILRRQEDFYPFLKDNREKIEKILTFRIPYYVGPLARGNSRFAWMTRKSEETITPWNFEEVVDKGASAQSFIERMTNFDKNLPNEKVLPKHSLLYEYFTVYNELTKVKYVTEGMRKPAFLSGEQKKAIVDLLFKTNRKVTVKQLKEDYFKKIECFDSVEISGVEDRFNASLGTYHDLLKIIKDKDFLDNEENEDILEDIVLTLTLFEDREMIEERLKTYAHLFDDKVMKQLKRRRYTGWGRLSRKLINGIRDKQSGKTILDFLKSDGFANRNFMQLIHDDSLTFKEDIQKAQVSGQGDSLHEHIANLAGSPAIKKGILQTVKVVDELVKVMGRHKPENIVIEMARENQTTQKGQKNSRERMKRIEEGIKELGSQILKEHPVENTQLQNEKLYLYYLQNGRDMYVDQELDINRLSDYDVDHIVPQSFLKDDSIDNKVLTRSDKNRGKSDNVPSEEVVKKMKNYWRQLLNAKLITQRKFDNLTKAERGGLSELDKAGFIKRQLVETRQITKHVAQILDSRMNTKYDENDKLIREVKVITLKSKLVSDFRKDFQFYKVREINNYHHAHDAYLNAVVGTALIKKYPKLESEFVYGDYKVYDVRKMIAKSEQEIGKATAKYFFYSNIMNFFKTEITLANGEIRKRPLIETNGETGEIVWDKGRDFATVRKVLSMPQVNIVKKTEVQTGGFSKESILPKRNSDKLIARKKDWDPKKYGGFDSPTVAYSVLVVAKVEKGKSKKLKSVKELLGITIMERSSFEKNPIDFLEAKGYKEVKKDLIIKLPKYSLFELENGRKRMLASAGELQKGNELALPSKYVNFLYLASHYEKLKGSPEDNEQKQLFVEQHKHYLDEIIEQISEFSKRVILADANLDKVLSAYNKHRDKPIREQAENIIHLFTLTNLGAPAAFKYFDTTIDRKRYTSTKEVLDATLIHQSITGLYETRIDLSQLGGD

B1: Listeria monocytogenes anti-CRISPR protein AcrIIA4 (a.a. 1-87) (natural protein, Listeria monocytogenes (prophage), UniProt A0A247D711 1-87, looked up)
chain: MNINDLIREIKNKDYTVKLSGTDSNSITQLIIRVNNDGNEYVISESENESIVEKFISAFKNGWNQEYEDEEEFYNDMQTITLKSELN
notes: AcrIIA4, anti-CRISPR protein encoded by Listeria monocytogenes prophages, residues 1-87, synthetic gene; Cloned into a modified pBT7-N-His vector; also called 15N-AcrIIA4; 13C,15N-AcrIIA4; source: E. coli BL21star(DE3), purified (HisTrap, TEV cleavage, Superdex 75, MonoQ); not shown: His6, N-terminal, cleaved
With B1, the figures for the Kd in test [1] and in test [2] were 0.0006 ± 0.0001 µM and 4.8 ± 0.15 µM, respectively. The dH in test [1] is -10.3 ± 0.1 kcal/mol; in test [2], -11.5 ± 0.7 kcal/mol. Besides, the “stoichiometry N” value in test [3] came out at 1.

The record behind these values is paper PMC5832863, “Solution structure and dynamics of anti-CRISPR AcrIIA4, the Cas9 inhibitor” (Scientific Reports, 2018).
